Assay [1] has as its target HER3 (Homo sapiens, UniProt P21860). Nature of the assay: HER3 degradation in N87 cells (immunoblotting). It counts as cell-based. Particulars: 3 h, 10 μg/ml mAb. The method, then:
(FIGS. 5A and 5B) The mAb ability to degrade HER3 after cell treatment was determined as follows. N87 cells were treated for 3 h at 37° C. with 10 μg/ml mAb. After cell lysis and protein extraction, the samples were subjected to immunoblotting with the indicated Ab. (FIG. 5C) The experiment shown in FIG. 5A was performed on 6 other cancer cell lines. (FIG. 5D) The mAb capacity to induce ADCC is reported. BXPC3-luc cells were incubated with the indicated mAbs and secondarily with human PBMC cells for 24 h. Cell killing was detected by measuring the luminescence after final addition of luciferine. *** […], ANOVA and post hoc tests.
NG33 and NRG abilities to degrade HER3 after cell treatment were determined as follows. […]
FIGS. 12A-D show a combination of two mAbs directed to two different epitopes of HER3. […] After ah incubation, the plate was washed 4 times with KREBS buffer, and the fluorescence intensity at 610 nm was measured using a fluorescence microplate reader. […] (FIG. 12D) The combination's capacity to modulate NRG-induced phosphorylation of HER3, AKT and ERK was evaluated using N87 cells. […] The cells were then lysed, and equal quantities of lysate protein were electrophoresed before immunoblotting, as indicated. […]
The capacity of the mAbs to decrease abundance of HER3 was determined using western blotting. […]
On the technique in general: In western blotting, separated proteins are transferred to a membrane and probed.

Assay [2] has as its target denatured form of HER3 (Homo sapiens, UniProt P21860). Briefly: Western blot detection of HER3 in T47D cell lysate (mAb as primary Ab). It counts as binding. The method, then: FIGS. 1A-E show hybridoma Screening and mAb Isotyping. (FIG. 1A) Mice were immunized with recombinant IgB3. (FIG. 1B) The hybridoma supernatant screening using ELISA, was performed on 96 well-plate coated with IgB3 (1 μg/ml) or with a human IgG. The plates were blocked with PBS-1% BSA and incubated for 1 h with hybridoma supernatants, followed by a second incubation for 1 h with HRP-labeled anti-mouse IgG and subsequently detected by 2,2′-azino-bis (3-ethylbenzothiazoline-6-sulfonic acid) addition. The OD at 415 nm was then measured using an ELISA microplate reader. (FIG. 1C) The second step of the screening was performed by immunoprecipitation (IP). Anti-mouse IgG beads were incubated first with the hybridoma supernatant and subsequently with total cell lysate from HER3-expressing T47D cells. (FIG. 1D) The mAbs directed to HER3 were isotyped using ELISA. […] (FIG. 1E) Finally the ability of the mAbs to detect HER3, used as primary Ab in a Western Blot experiment, was determined on cell lysate from T47D cells.
Cells were grown under specified conditions or treated as indicated. […] Antibody binding to membrane blots was detected using horseradish peroxidase-secondary antibodies (Jackson ImmunoResearch Laboratories), followed by treatment with ECL Western blotting detection reagents (GE Healthcare). […]

Sequence of denatured form of HER3 (P21860 20-1342): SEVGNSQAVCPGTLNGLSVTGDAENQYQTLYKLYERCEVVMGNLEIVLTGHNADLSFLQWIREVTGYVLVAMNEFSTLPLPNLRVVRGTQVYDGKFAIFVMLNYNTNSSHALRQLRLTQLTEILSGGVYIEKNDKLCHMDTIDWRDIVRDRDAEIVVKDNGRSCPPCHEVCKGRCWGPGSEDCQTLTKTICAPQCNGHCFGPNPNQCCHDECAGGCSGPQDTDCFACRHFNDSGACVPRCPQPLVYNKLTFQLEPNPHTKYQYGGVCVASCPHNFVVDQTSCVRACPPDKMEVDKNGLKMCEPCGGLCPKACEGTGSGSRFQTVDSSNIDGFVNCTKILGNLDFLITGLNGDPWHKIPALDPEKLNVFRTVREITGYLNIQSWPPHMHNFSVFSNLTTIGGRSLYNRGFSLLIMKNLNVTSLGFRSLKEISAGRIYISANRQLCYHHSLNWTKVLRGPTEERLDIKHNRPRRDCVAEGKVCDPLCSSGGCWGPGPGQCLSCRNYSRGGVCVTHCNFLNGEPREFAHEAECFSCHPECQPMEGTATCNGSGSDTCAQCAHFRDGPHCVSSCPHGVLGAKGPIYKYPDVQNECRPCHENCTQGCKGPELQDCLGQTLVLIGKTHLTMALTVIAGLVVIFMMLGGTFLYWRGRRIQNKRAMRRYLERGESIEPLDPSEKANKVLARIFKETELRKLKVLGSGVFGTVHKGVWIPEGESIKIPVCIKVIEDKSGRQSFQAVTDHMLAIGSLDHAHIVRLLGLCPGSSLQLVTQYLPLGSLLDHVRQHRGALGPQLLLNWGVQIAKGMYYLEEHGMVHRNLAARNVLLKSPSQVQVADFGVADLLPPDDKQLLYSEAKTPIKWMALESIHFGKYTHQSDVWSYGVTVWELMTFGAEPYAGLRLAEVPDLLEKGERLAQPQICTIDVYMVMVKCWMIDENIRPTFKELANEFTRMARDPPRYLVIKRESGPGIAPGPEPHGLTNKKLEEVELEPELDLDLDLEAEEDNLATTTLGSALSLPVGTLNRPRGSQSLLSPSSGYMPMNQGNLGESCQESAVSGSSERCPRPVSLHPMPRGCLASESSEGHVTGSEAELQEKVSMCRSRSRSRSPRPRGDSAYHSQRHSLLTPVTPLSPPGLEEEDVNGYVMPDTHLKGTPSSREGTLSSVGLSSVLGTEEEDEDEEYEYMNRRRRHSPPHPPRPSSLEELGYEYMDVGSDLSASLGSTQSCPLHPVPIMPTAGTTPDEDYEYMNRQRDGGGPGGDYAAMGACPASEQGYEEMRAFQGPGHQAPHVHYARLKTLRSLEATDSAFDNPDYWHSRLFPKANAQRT
Sequence of HER3 (P21860 20-1342): as above

B1: XC252: anti-HER3 mAb generated as described in Chen X, et al. (1996); heavy and light chain SEQ ID NOs: 49 and 53 (antibody, V domains shown)
VH: EVQLQQSGAELVRPGVSVKISCKGSGYTFTDYAMHWVKQSHAKSLEWIGVISTYYGDPRDNQKFKGKATMTVDKSSSTAYMELARLTSEDSAIYYCARGDYDWYAIDYWGQGTSVTVSS
VL: DVVMTQTPLSLPVSLGDQASISCRSSQSIVHSDGNTYLEWYLQKPGQSPKLLIYKVSNRFSGVPDRFSGSGSGTDFTLKISRVEAEDLGVYYCFQGSHVPPTFGGGTKLEIK
modifications: VH chain of XC252 polypeptide; VL chain of XC252 polypeptide
In the case of B1, the HER3 degradation result in assay [1] was “caused HER3 degradation, but their impact was weaker”.

B2: NG83: anti-HER3 mAb; light chain CDRs SEQ ID NOs: 7-9, heavy chain CDRs 10-12 (antibody, V domains shown)
VH: QIQLVQSGPELKKRGETVKISCKASGYTFTNYGMNWVRQAPGKGLKCMGWINTYAGEPTYADDFKGRFAFSLDSSASTAYLQINNLKNEDMATYFCARGGITGAMDYWGQGTSVTVSS
VL: DVVMTQKTSSLSTSLGDRVTISCRASQDIRNYLNWYQQKPDGTVKLLIYYTSRLHSGVPSRFSGSGSGTDYSLTISDLEQEDIATYFCQQGNTLPWTFGGGTKLAIK
modifications: VH chain of NG83 polypeptide; VL chain of NG83 polypeptide
Regarding B2, the “recognition of HER3 in western blotting” value in assay [2] is reported as “able to recognize the denatured form of HER3”.

The values are drawn from US10526416B2, “Anti-HER3 antibodies and uses of same” (Yeda Research and Development Co. Ltd., priority 2014, dated 2020).
